T1: human TROP2 (antigen of panning and clone screening) (human, UniProt P09758 27-274, limits assumed)
T1 construct: also called human TROP2-His protein; TROP2-expressing CHOK1 cells
T1 sequence (looked up): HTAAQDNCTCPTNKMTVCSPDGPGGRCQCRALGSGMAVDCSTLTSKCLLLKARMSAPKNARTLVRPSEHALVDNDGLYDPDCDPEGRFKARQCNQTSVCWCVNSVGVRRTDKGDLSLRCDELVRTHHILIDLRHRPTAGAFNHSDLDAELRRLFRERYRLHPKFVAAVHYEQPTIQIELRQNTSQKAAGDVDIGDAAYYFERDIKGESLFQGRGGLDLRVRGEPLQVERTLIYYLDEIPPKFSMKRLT

T2: recombinant human TROP2 protein (human, UniProt P09758 27-274)
T2 chain: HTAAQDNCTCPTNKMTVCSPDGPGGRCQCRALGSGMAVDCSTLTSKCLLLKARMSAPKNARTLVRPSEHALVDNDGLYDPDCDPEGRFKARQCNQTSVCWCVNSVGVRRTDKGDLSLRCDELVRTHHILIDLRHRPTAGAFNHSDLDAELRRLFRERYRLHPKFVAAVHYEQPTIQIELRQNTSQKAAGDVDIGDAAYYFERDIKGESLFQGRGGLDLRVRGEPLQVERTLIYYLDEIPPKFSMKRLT

T3: recombinant human TROP2 protein (human, UniProt P09758 27-274)
T3 sequence (looked up): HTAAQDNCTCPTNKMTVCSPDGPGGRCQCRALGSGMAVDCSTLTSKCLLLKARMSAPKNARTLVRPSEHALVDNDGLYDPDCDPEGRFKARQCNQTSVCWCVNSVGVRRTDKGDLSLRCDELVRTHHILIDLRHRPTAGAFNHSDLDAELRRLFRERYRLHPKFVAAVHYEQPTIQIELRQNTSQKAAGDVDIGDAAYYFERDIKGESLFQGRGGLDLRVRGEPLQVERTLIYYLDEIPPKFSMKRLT

B1: anti-TROP2 #TP1 VHH (VHH)
VHH: EVQVVESGGGLAQPGGSLRLSCAASGFWFSTYAMSWARQAPGKGLEWVSGIYADGSATYYADSVKGRFTISRDNAKNTLYLHMNSLKPEDTALYYCAQGYSDYDRRVGGYDYWGQGTQVTVSS
B2: anti-TROP2 #TP2 VHH (VHH)
VHH: EVQLVESGGGLAQPGGSLRLSCAASGFTFSTYAMSWARQAPGKGLEWVSGIYADGSGTYYADSVKGRFTISRDNAKNTLYLQMNSLKPEDTALYYCAQGYSDYDRRLGEYDYWGQGTQVTVSS
B3: anti-TROP2 #TP20 VHH (VHH)
VHH: EVQVVESGGGLVQPGGSLRLSCAASGNIKSTAVMGWHRQAPGKEREWVAIITTGEDRFSGDRLQYADSVKDRFTISRDNAKNTVYLQMNSLKPEDTAVYYCNVDVLYMADGRYARSEFWGQGTQVTVSS
B4: anti-TROP2 #TP6 VHH (VHH)
VHH: QLQLVESGGGLVQPGGSLRLSCAASGTLDYWTVGWFRQAPGKEREGVSCISSSDSSTYYADSVKGRFTISRDNAKNTVYLQMNSLKPEDTAVYYCAAGSLGYCSRSTPQYEYDFWGQGTQVTVSS
B5: anti-TROP2 #TP4 VHH (VHH)
VHH: QLQLVESGGGLVQPGGSLRLSCAASGFTLDDYAMRWFRQAPGKAREGVSCISRSDGTTYYADSVKGRFTISRNNAENTVYLQMNSLKPEDTAVYYCAADSLGCNGYSDWGVDYWAKGTLVTVSS
B6: anti-PD-L1 #PD2 VHH (VHH)
VHH: DVQLQESGGGLVEPGGSLRLSCAASGFTFNHYGMSWVRQAPGKGLQWVSTLFTTGSSQYANSVKGRFTISRDAAENTLYLHMNNLKPEDTAVYFCAKGVGLGSERGPGTQVTVSS
B7: anti-PD-L1 #PD1 VHH (VHH)
VHH: DVQLQESGGGLVQAGGSLRLSCAASESIASINVMGWYRQAPGKQRELVAIITNRGTTSYPDSVKGRFTISRDNGKNTVYLQMNTLKPEDTAVYYCNAPWTDGINYWGKGTQVTVSS
B8: anti-PD-L1 #PD3 VHH (VHH)
VHH: DVQLQESGGGLVQAGDSLGLSCAASGRAFSLFEMAWYRQAPGKAREFVAAIMWRGGHTVYADSVKGRSTISSDNTKNTVYLQMNSLKPEDTAIYYCRGKVVGSDYWGQGTQVTVSS
B9: TROP2 CAR with anti-TROP2 VHH #TP12, on γδ T cells (other)
chain: QVQLVESGGGLVQPGGSLRLSCAASRFTLDYYAIGWIRQAPGKEREGVSCISSSGGSTNYADSVKGRFTISRDNAKNTVYLQMNSLKPEDTGVYYCAATTYACSGYVPRAYEYDYWGQGTQVTVSSTTTPAPRPPTPAPTIASQPLSLRPEACRPAAGGAVHTRGLDFACDIYIWAPLAGTCGVLLLSLVITLYCKRGRKKLLYIFKQPFMRPVQTTQEEDGCSCRFPEEEEGGCELRVKFSRSADAPAYQQGQNQLYNELNLGRREEYDVLDKRRGRDPEMGGKPRRKNPQEGLYNELQKDKMAEAYSEIGMKGERRRGKGHDGLYQGLSTATKDTYDALHMQALPPR
B10: TROP2 CAR with anti-TROP2 VHH #TP14, on γδ T cells (other)
chain: EVQVVESGGGLVQPGGSLRLSCAVSGFTLDWYAIGWFRQAPGKEHEGVACIDPSERSTYADPVKGRFTISRDNAKNTVHLQMNSLKPEDTAVYYCAADTLPCFFYGSMWPPPDNWGQGTQVTVSSTTTPAPRPPTPAPTIASQPLSLRPEACRPAAGGAVHTRGLDFACDIYIWAPLAGTCGVLLLSLVITLYCKRGRKKLLYIFKQPFMRPVQTTQEEDGCSCRFPEEEEGGCELRVKFSRSADAPAYQQGQNQLYNELNLGRREEYDVLDKRRGRDPEMGGKPRRKNPQEGLYNELQKDKMAEAYSEIGMKGERRRGKGHDGLYQGLSTATKDTYDALHMQALPPR
B11: TROP2 CAR with anti-TROP2 VHH #TP2, on γδ T cells (other)
chain: EVQLVESGGGLAQPGGSLRLSCAASGFTFSTYAMSWARQAPGKGLEWVSGIYADGSGTYYADSVKGRFTISRDNAKNTLYLQMNSLKPEDTALYYCAQGYSDYDRRLGEYDYWGQGTQVTVSSTTTPAPRPPTPAPTIASQPLSLRPEACRPAAGGAVHTRGLDFACDIYIWAPLAGTCGVLLLSLVITLYCKRGRKKLLYIFKQPFMRPVQTTQEEDGCSCRFPEEEEGGCELRVKFSRSADAPAYQQGQNQLYNELNLGRREEYDVLDKRRGRDPEMGGKPRRKNPQEGLYNELQKDKMAEAYSEIGMKGERRRGKGHDGLYQGLSTATKDTYDALHMQALPPR
B12: TROP2 CAR with anti-TROP2 VHH #TP6, on γδ T cells (other)
chain: QLQLVESGGGLVQPGGSLRLSCAASGTLDYWTVGWFRQAPGKEREGVSCISSSDSSTYYADSVKGRFTISRDNAKNTVYLQMNSLKPEDTAVYYCAAGSLGYCSRSTPQYEYDFWGQGTQVTVSSTTTPAPRPPTPAPTIASQPLSLRPEACRPAAGGAVHTRGLDFACDIYIWAPLAGTCGVLLLSLVITLYCKRGRKKLLYIFKQPFMRPVQTTQEEDGCSCRFPEEEEGGCELRVKFSRSADAPAYQQGQNQLYNELNLGRREEYDVLDKRRGRDPEMGGKPRRKNPQEGLYNELQKDKMAEAYSEIGMKGERRRGKGHDGLYQGLSTATKDTYDALHMQALPPR
B13: TROP2 CAR with anti-TROP2 VHH #TP9, on γδ T cells (other)
chain: QVQLVESGGGLVQPGGSLRLSCAASGFSLDYWAIAWFRQAPGKEREGVSCSGSRGSTHYADSVKGRFTISRDNAKNTVYLQMNSLKPEDAGVYYCAVGSTLYSLTPYEYDYWGQGTQVTVSSTTTPAPRPPTPAPTIASQPLSLRPEACRPAAGGAVHTRGLDFACDIYIWAPLAGTCGVLLLSLVITLYCKRGRKKLLYIFKQPFMRPVQTTQEEDGCSCRFPEEEEGGCELRVKFSRSADAPAYQQGQNQLYNELNLGRREEYDVLDKRRGRDPEMGGKPRRKNPQEGLYNELQKDKMAEAYSEIGMKGERRRGKGHDGLYQGLSTATKDTYDALHMQALPPR
B14: TROP2 CAR with anti-TROP2 #PL02 scFv (VL-linker-VH) adopted from monoclonal antibody hRS7, on γδ T cells (other, not shown: small tags and cut ends)
chain: DIQLTQSPSSLSASVGDRVSITCKASQDVSIAVAWYQQKPGKAPKLLIYSASYRYTGVPDRFSGSGSGTDFTLTISSLQPEDFAVYYCQQHYITPLTFGAGTKVEIKGGGGSGGGGSGGGGSQVQLQQSGSELKKPGASVKVSCKASGYTFTNYGMNWVKQAPGQGLKWMGWINTYTGEPTYTDDFKGRFAFSLDTSVSTAYLQISSLKADDTAVYFCARGGFGSSYWYFDVWGQGSLVTVSS
notes: CAR on γδ T cells

One assay concerns the target T1, human TROP2 (antigen of panning and …). In words: positive phage clones from panning on human TROP2-His protein or on TROP2-expressing CHOK1 cells, ELISA. An excerpt: After confirming successful immunization with TROP2 protein, PBMC was isolated and used for construction of a phage display library with the size of 2.42×10⁹ cfu. TROP2 VHH binders were isolated from the phage display library using solid phase panning on human TROP2-His protein and cell-based panning on the engineered, TROP2-expressing CHOK1 cells in two parallel discovery campaigns. […] Stringency was increased during successive rounds by decreasing antigen concentration, increasing the number and duration of washes, and/or changing the duration of selections. The positively identified phages were diluted and spread on a petri dish to grow single colonies. Individual phage clones were selected and amplified. […] After three rounds of screening on TROP2 CHOK1 cells, a total of 384 clones were selected, of which 163 clones were TROP2-specific as tested by ELISA. After sequencing the positive clones, 9 unique sequences were obtained based on amino acid sequences. In combination, a total of 20 unique sequences were identified.
For B1, the binding result is given as “binds”. Same read-out and setting: next, B2: “binds”. Still for that read-out and setting: the value for B3 was “binds”; that for B4 was “binds”; that for B5 was “binds”.

In another assay the target is T4, human PD-L1 (antigen of panning and phage ELISA) (human, UniProt Q9NZQ7 19-238, biotinylated (panning antigen)).
T4 construct: also called biotinylated human PD-L1
T4 sequence (Q9NZQ7 19-238 limits assumed): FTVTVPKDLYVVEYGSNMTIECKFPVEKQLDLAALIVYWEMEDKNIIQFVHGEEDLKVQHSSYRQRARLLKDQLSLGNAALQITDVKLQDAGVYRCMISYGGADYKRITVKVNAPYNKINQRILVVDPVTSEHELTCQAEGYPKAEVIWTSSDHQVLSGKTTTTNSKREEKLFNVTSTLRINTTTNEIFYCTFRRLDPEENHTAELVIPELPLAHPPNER
In words: phage ELISA of clones panned on biotinylated human PD-L1. An excerpt: The animal boosted four times every two weeks. After confirming the serum titer against PD-L1, PBMC was isolated and used for phage display library construction. Anti-PD-L1 binders were isolated with the immunized phage display library using liquid phase Biopanning on biotinylated human PD-L1. Stringency was increased during successive rounds by decreasing antigen concentration, increasing the number and duration of washes, and/or changing the duration of selections. The panning process was repeated three to four times until the output phage enrichment was identified. The eluted phages were diluted and spread on a petri dish to grow single colonies. Individual phage clones were selected and amplified. 384 single colonies were selected and tested for specificity by ELISA. […] After sequencing the positive clones, three unique sequences were obtained based on amino acid sequences.
On the technique in general: ELISA stands for enzyme-linked immunosorbent assay.
B6: the binding result was “binds”. B7: the binding result is recorded as “binds”. As for B8, the binding result was “binds”.

The target in a further assay is T2, recombinant human TROP2 protein. As to the kind of experiment: binding of TROP2 protein to binder-expressing γδ T cells.
Turning to B9, the half-maximal effective concentration (EC50) (in general, the concentration giving half of the maximal effect) was found to be 14.4 nM. Same read-out and setting: the value for B10 was 3.65 nM. The same measure, in the same setting: the value for B11 was 3.43 nM; that for B12 was 17.7 nM; that for B13 was 18.1 nM. B14: the half-maximal effective concentration (EC50) came out at 6.81 nM.

The target of another assay is T3, recombinant human TROP2 protein. As to the kind of experiment: flow cytometry, titration of TROP2 protein on CAR γδ T cells. (In flow cytometry, cells or beads pass a laser one at a time.)
For the molecule B14, the binding result was “binds”.

For the origin of these results see patent US20260242730A1 (POINTLOMA BIOSCIENCES, published 2026).
